Data from patent US20030007991A1, “Devices including protein matrix materials and methods of making and using thereof” (priority 1998, published 2003).

System: xanthine oxidase
Test: In vitro enzyme activity of xanthine oxidase in a protein matrix array piece (Sigma Enzymatic Assay of Superoxide Dismutase protocol, spectrophotometer)
Type: biochemical
Settings: absorbance measured at 550 mm, cytochrome C and other reactants, no enzyme activity produces 0.00000 change

Substance: xanthine oxidase
- enzyme activity of xanthine oxidase (change in absorbance): 0.0250 delta absorbance/min
